{
  "source": "paper PMC3988464",
  "key": {"CXCR2 (Homo sapiens)": {"biological_target": "CXCR2 (Homo sapiens) (UniProt P25025)", "sequence (P25025 whole entry)": "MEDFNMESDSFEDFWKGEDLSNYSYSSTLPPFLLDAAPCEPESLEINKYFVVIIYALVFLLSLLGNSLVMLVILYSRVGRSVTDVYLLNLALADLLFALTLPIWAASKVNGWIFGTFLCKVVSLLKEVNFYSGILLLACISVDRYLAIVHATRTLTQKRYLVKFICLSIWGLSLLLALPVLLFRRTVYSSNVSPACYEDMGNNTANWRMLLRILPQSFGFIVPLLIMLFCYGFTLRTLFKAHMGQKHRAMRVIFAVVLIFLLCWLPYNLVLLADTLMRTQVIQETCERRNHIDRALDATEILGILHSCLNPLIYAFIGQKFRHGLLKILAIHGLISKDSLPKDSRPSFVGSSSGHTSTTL", "conditions": "cited from earlier work"}, "[1]": {"biological_target": "Isolated Link module of human TSG-6 (Link_TSG6) (human) (UniProt P98066)", "sequence (P98066 36-129)": "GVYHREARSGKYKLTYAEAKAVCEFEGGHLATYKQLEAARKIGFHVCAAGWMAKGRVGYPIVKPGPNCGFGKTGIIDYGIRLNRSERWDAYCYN", "assay": "SPR"}, "[2]": {"biological_target": "Isolated Link module of human TSG-6 (Link_TSG6) (human) (UniProt P98066)", "assay": "SPR", "remark": "listed apart in the source"}, "CXCL8 (Homo sapiens)": {"biological_target": "CXCL8 (Homo sapiens) (UniProt P10145)", "sequence (P10145 28-99)": "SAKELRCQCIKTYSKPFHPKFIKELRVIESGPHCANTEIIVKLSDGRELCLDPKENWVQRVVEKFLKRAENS", "conditions": "cited from earlier work"}, "Wild type CXCL8 (human) [3]": {"biological_target": "Wild type CXCL8 (human)", "assay": "SPR"}, "Wild type CXCL8 (human) [4]": {"biological_target": "Wild type CXCL8 (human)", "assay": "SPR", "remark": "listed apart in the source"}, "Wild type CXCL8 (human) [5]": {"biological_target": "Wild type CXCL8 (human)"}},
  "note": "Where two headings read alike, the source gives them in different places.",
  "data": [
    {"substance": "CXCL8 (from UniProt P10145)", "values": [
      {"measurement": "Kd", "setting": "CXCR2 (Homo sapiens)", "result": 1, "unit": "nM"}
    ]},
    {"substance": "Wild type CXCL8 (ligand)", "values": [
      {"measurement": "Kd", "setting": "[1]", "result": 6, "unit": "nM"},
      {"measurement": "koff", "setting": "[1]", "result": 0.00032, "unit": "s⁻¹"},
      {"measurement": "Kd", "setting": "[2]", "result": 21, "unit": "nM"},
      {"measurement": "koff", "setting": "[2]", "result": 0.0011, "unit": "s⁻¹"}
    ]},
    {"substance": "Evasin-3 (from UniProt P0C8E8)", "values": [
      {"measurement": "Kd", "setting": "CXCL8 (Homo sapiens)", "result": 1, "unit": "nM"}
    ]},
    {"substance": "Full-length, wild type recombinant human TSG-6 (from UniProt P98066 18-277) (natural protein)", "values": [
      {"measurement": "Kd", "setting": "Wild type CXCL8 (human) [3]", "result": 20, "unit": "nM"},
      {"measurement": "Kd", "setting": "Wild type CXCL8 (human) [4]", "result": 74, "unit": "nM"}
    ]},
    {"substance": "Isolated Link module of human TSG-6 (Link_TSG6) (from UniProt P98066 36-129) (domain or fragment)", "values": [
      {"measurement": "inhibition of CXCL8-induced neutrophil trans-migration (Transwell)", "setting": "Wild type CXCL8 (human) [5]", "result": 10, "unit": "nM"}
    ]}
  ]
}
